Experimental findings from US20250003976A1, “ANTIBODIES TARGETING PHOSPHORYLATED SEVEN-TRANSMEMBRANE RECEPTORS” (7TM ANTIBODIES GMBH, priority 2021, published 2025) are described below.

Assay [1] has as its target hemagglutinin (HA)-tagged mouse µ-opioid receptor (MOP), phosphorylated after DAMGO stimulation (mouse) (UniProt P42866). Kind of assay: 7TM phosphorylation assay: HA-MOP of DAMGO-treated cells on anti-HA magnetic beads.
For assay [2], the target named is hemagglutinin (HA)-tagged mouse µ-opioid receptor (MOP), not phosphorylated (mouse) (UniProt P42866). Kind of assay: 7TM phosphorylation assay: HA-MOP of untreated cells on anti-HA magnetic beads.
Sequence of hemagglutinin (HA)-tagged mouse µ-opioid receptor (MOP), not phosphorylated (mouse) (P42866 whole entry): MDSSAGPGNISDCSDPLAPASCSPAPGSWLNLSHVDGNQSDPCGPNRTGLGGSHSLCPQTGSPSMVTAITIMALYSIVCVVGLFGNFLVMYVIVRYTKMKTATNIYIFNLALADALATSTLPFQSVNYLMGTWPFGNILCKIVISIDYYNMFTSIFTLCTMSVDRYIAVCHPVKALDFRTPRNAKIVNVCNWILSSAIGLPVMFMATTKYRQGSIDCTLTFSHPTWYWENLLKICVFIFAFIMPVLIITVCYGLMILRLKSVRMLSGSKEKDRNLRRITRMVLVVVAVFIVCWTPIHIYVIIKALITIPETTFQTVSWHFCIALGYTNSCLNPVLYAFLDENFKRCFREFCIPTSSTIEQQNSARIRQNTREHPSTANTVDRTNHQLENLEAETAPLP
The target is the same in assay [3]. Kind of assay: saturation binding of [3H]DAMGO to membranes of HA-MOP-transfected HEK293 cells.
The next assay concerns the target μ-opioid receptor (MOP) (Mus musculus, UniProt P42866).
Assay [4] has as its target T1, MOP (Mus musculus, UniProt P42866). To be noted: 60 min of agonist exposure.
Assay [5] has as its target T1, MOP. To be noted: 60 min of agonist exposure. The source holds these as a separate data set.
Assay [6] addresses hemagglutinin (HA)-tagged mouse µ-opioid receptor (MOP), phosphorylated after DAMGO stimulation (mouse) (UniProt P42866). Kind of assay: 7TM phosphorylation assay: HA-MOP on anti-HA magnetic beads, rabbit primary antibody, enzyme-labeled secondary antibody.

T1 sequence (P42866 whole entry): as above
Sequence of μ-opioid receptor (MOP) (P42866 whole entry): as above

As for anti-np-MOP antibody (7TM0319N), the optical density (OD) read at 405 nm in assay [1] and in assay [2] was 0.8 OD at 405 nm throughout.
On to “[D-Ala2,N-MePhe4,Gly-ol]-enkephalin (DAMGO) (peptide)”, for which, in assay [3], the functional MOPs per cell (saturation binding) (MOPs per cell) amounted to 300000.
For `CCCCCCCCCCCCCC(=O)O[C@@H]1[C@@H](C)[C@@]2(O)[C@@H](C=C(CO)C[C@]3(O)C(=O)C(C)=C[C@@H]23)[C@@H]2C(C)(C)[C@]12OC(C)=O` [PMA, phorbol 12-myristate 13-acetate], the “T370 phosphorylation of MOP (heterologous, PKC activation)” value on μ-opioid receptor (MOP) was “potent and selective phosphorylation of T370”.
In the case of `C[C@@H](NC(=O)[C@@H](N)Cc1ccc(O)cc1)C(=O)NCC(=O)N(C)[C@@H](Cc1ccccc1)C(=O)NCCO` [DAMGO, [D-Ala2,N-MePhe4,Gly-ol]-enkephalin], on μ-opioid receptor (MOP), the “extent of MOP phosphorylation resulting from GRK2/3 recruitment” value was “full phosphorylation”. In addition, the “β-arrestin1 and β-arrestin2 recruitment” value on MOP [4] is given as “virtually identical to those of DAMGO-induced MOP phosphorylation”. At MOP [5], the “recruitment of GRK2 and GRK3 to MOP” value is “high efficiency”.
As to anti-pS375-MOP antibody (7TM0319C), the optical density (OD) read at 405 nm in assay [2] stood at 0.2 OD at 405 nm; in assay [6], 1.2 OD at 405 nm.
